Data published in patent US20140286957A1 (Teva, published 2014).
Positions count from the first letter of the chain named. In names and notes the source's numbering stands. Where two headings read alike, the source gives them in different places. Blank lines part the entries; values can stand above or below the molecule they belong to.

Legend:
Human CD1d on cells [1] = target: T1, Human CD1d on cells (human, UniProt P15813 20-335); assay: cell-based or functional assay
T1 sequence (looked up): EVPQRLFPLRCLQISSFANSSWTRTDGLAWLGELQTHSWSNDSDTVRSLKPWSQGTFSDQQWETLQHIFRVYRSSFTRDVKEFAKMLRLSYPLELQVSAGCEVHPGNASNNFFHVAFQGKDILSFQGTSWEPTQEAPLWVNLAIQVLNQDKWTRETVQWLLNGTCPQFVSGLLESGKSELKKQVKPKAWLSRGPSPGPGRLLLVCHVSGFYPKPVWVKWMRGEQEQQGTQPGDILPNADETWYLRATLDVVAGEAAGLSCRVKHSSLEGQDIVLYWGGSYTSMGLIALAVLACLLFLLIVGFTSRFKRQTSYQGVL

[2] = target: T2, CD1d tetramer loaded with α-GalCer (ProImmune) (UniProt P15813 20-301, limits assumed); assay: flow cytometry, inhibition of CD1d tetramer (10 nM) binding to NKTCR on J.RT3-T3.5 cells
T2 construct: Bought reagent; also called fluorochrome-conjugated CD1d tetramer
T2 sequence (looked up): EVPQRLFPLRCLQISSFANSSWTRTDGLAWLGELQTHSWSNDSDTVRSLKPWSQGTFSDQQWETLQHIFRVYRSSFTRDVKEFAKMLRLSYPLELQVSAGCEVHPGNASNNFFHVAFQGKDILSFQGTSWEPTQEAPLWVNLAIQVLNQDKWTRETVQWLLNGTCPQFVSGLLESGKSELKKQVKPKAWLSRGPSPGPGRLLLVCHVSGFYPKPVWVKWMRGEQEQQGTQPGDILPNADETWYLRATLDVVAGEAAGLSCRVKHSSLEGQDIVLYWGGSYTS

[3] = target: Cynomolgus macaque CD1d on cells (cynomolgus macaque); assay: flow cytometry, biotinylated antibody and streptavidin-PE on cynomolgus PBMC, gated live cells
Human CD1d/β2M [4] = target: T3, Human CD1d/β2M (human, UniProt P15813 20-301; P61769 21-119); assay: SPR, transfection supernatant
T3 construct: also called hCD1d; recombinant human CD1d

Human CD1d on cells [5] = target: T1, Human CD1d on cells; assay: cell-based or functional assay; remark: listed apart in the source
Human CD1d on cells [6] = target: T1, Human CD1d on cells; assay: cell-based or functional assay; remark: listed apart in the source
Human CD1d on cells [7] = target: T1, Human CD1d on cells; assay: cell-based or functional assay; remark: listed apart in the source
Human CD1d/β2M [8] = target: T3, Human CD1d/β2M; assay: SPR
Human CD1d on cells [9] = target: T1, Human CD1d on cells; assay: cell-based or functional assay; remark: listed apart in the source
Human CD1d on cells [10] = target: T1, Human CD1d on cells; assay: cell-based or functional assay; remark: listed apart in the source
Human CD1d on cells [11] = target: T1, Human CD1d on cells; assay: cell-based or functional assay; remark: listed apart in the source

IFN-γ EC50 (C24:1 βGluCer, moDC) (Human CD1d on cells [1]): 112 ng/mL
IFN-γ EC50 (primary CD14+ cells) (Human CD1d on cells [1]): 168 ng/mL
IL-2 release EC50 (U-937 + NKTCR cell line) (Human CD1d on cells [1]): 77.3 ng/mL
IL-4 EC50 (C24:1 βGluCer, moDC) (Human CD1d on cells [1]): 113 ng/mL
IL-5 EC50 (C24:1 βGluCer, moDC) (Human CD1d on cells [1]): 86.4 ng/mL
IL-13 EC50 (C24:1 βGluCer, moDC) (Human CD1d on cells [1]): 66.8 ng/mL
IL-13 EC50 (primary CD14+ cells) (Human CD1d on cells [1]): 222 ng/mL
NKT IFN-γ EC50 (moDC) (Human CD1d on cells [1]): > 1000 ng/mL
TNF-α EC50 (C24:1 βGluCer, moDC) (Human CD1d on cells [1]): 29.7 ng/mL
EC50 [2]: 0.775 µg/mL
Molecule: anti-CD1d antibody 51.1 (eBioscience)

percent CD1d-positive cells, Donor 1 [3]: 4.14%
percent CD1d-positive cells, Donor 2 [3]: 4.22%
Molecule: irrelevant specificity negative control antibody (human IgG1)

NKT IL-4 EC50 (moDC) (Human CD1d on cells [6]): 1.95 ng/mL
NKT IL-13 EC50 (moDC) (Human CD1d on cells [6]): 5.22 ng/mL
fold improvement against 401.11 (IFN-γ, moDC) (Human CD1d on cells [7]): ~5.1 fold
Kd (Human CD1d/β2M [8]): 0.223 nM
NKT IFN-γ EC50 (moDC) (Human CD1d on cells [9]): 7.76 ng/mL
NKT IL-4 EC50 (moDC) (Human CD1d on cells [9]): 2.72 ng/mL
NKT IL-5 EC50 (moDC) (Human CD1d on cells [9]): 5.86 ng/mL
NKT IL-13 EC50 (moDC) (Human CD1d on cells [9]): 9.53 ng/mL
NKT TNF EC50 (moDC) (Human CD1d on cells [9]): 4.51 ng/mL
NKT IFN-γ EC50 (THP-1) (Human CD1d on cells [10]): 5.81 ng/mL
NKT IL-4 EC50 (THP-1) (Human CD1d on cells [10]): 1.99 ng/mL
NKT IL-5 EC50 (THP-1) (Human CD1d on cells [10]): 4.45 ng/mL
NKT IL-13 EC50 (THP-1) (Human CD1d on cells [10]): 6.91 ng/mL
NKT TNF EC50 (THP-1) (Human CD1d on cells [10]): 3.85 ng/mL
B3: 401.11.156 (antibody, IgG4, V domains shown)
VH: QVQLVGSGGGLVKPGRSLRLSCAASGFTFDDYAMHWVRQAPGKGLEWVATIIWNSAIIGYADSVKGRFIVSRDNAKNSLYLQMNSLRAEDTALYYCAKDMCSSGGCPDGYFDSWGQGTLVTVSS
VL: DIQMTQSPSSVSASVGDRVTITCRASQHISSWLAWYQQKPGKAPKLLIYAASSLQSGVSSRFSGSGSGTDFTLTISSLQPEDFATYYCQQANRFPLTFGGGTKLEIKR
notes: IgG4 (S228P)

Kd (Human CD1d/β2M [4]): 0.855 nM
NKT IFN-γ EC50 (THP-1) (Human CD1d on cells [5]): 3.25 ng/mL
NKT IFN-γ EC50 (moDC) (Human CD1d on cells [5]): 1.3 ng/mL
B5: 401.11.26 (antibody, IgG4, V domains shown)
VH: B3 VH with Q1E, G6E, K13Q, T91M, G104S
VL: B3 VL with K45N, S59P
notes: IgG4 (S228P)

NKT IFN-γ EC50 (THP-1) (Human CD1d on cells [5]): 1.42 ng/mL
NKT IFN-γ EC50 (moDC) (Human CD1d on cells [5]): 0.294 ng/mL
B6: 401.11.28 (antibody, IgG4, V domains shown)
VH: B3 VH with G104S
VL: B3 VL with K45N, S59P

NKT IFN-γ EC50 (THP-1) (Human CD1d on cells [11]): 1.29 ng/mL
NKT IFN-γ EC50 (moDC) (Human CD1d on cells [11]): 0.359 ng/mL
NKT IL-4 EC50 (THP-1) (Human CD1d on cells [11]): 0.509 ng/mL
NKT IL-4 EC50 (moDC) (Human CD1d on cells [11]): 1.74 ng/mL
B8: 401.11.86 (antibody, IgG4, V domains shown)
VH: B3 VH with T91M
VL: B3 VL with K45N

The remaining lines, values behind:

B1: 401.11.24 (antibody, IgG4, V domains shown)
VH: B3 VH with G104S
VL: B3 VL
notes: IgG4 (S228P)
Kd (Human CD1d/β2M [4]): 0.644 nM
NKT IFN-γ EC50 (THP-1) (Human CD1d on cells [5]): 4.26 ng/mL
NKT IFN-γ EC50 (moDC) (Human CD1d on cells [5]): 0.36 ng/mL

B2: 401.11.19 (antibody, V domains shown)
VH: B3 VH with T91M, G104S
VL: DIQMTQSPSSVSASVGDRVTITCRASQHISSWLAWYQQKPGKAPKLLIYAASSLQSGVSSRFSGSGSGTDFTLTISSLQPEDFATYYCQQANRFPLTFGGGTKLEIK
Kd (Human CD1d/β2M [4]): 0.667 nM

B4: 401.11.15 (antibody, V domains shown)
VH: B3 VH with Q1E, G6E, T91M, G104S
VL: B2 VL with K45N
Kd (Human CD1d/β2M [4]): 0.507 nM

B7: 401.11.22 (antibody, V domains shown)
VH: B3 VH with Q1E, G6E, K13Q, T91M, G104S
VL: B2 VL
Kd (Human CD1d/β2M [4]): 0.754 nM
